One experiment concerns the target Abl2 SH2 domain (UniProt Q4JIM5). Briefly: SH2-coupled bead pull-down from lysate, blot. Particulars: reference: wild type.
Experiment [1] addresses Abl2 Src homology 2 (SH2) domain (UniProt Q4JIM5). Briefly: pull-down; Abl2 SH2 covalently linked to AminoLink beads, 1 μM; 0 to 2 μM PDGFRβ CD; 1 h at 4 °C; 50 mM Hepes pH 7.25, 150 mM NaCl, 5% glycerol, 1 mM DTT; SDS-PAGE, Coomassie densitometry, one-site specific binding fit.

Sequence of UniProt Q4JIM5 (Q4JIM5 173-263): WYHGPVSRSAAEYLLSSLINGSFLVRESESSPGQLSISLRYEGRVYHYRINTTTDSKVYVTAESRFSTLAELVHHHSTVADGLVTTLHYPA

In the experiment with Abl2 SH2 domain (sites Y751), PDGFRβ (from UniProt P09619) Y751F displayed an other: percent reduction relative to WT of 10%.

In turn, PDGFRβ (from UniProt P09619) Y771F yielded an other: percent reduction relative to WT with Abl2 SH2 domain (sites Y771) of 90%.

The term Kd denotes the constant that tells how readily two partners part at equilibrium. A lower Kd goes with a tighter complex. “autophosphorylated PDGFRβ cytoplasmic domain (CD) (from UniProt P09619 554-1106) (domain or fragment)” showed a Kd in experiment [1] of 260 nM.

The values above are taken from publication PMC8259415.
